In PMC7954794, “Protein context shapes the specificity of SH3 domain-mediated interactions in vivo” (Nature Communications, 2021):

Test system: PPIs identified as affected by the SH3 domain deletions
Assay: Liquid DHFR-PCA low-throughput validation of PPIs affected by SH3 deletion (Fig. S1D-E)
Format: cell-based, Saccharomyces cerevisiae
Conditions: label = prey, liquid DHFR-PCA, prey _1 = lost, _2 = gained in screen
Method: Liquid DHFR-PCA low-throughput experiments were performed to validate the PPIs identified as affected by the SH3 domain deletions in the high-throughput solid DHFR-PCA screen (256 PPIs weaker or lost and 116 PPIs stronger or gained following domain deletions). Mating and the diploid selection were performed as described for the large-scale experiment, with the exception that the plates were in 384 formats. Following the second diploid selection, diploid cells were inoculated in a 96 v-shaped well plate using a robotically manipulated 96 pin tool in a synthetic complete medium with MSG at pH 6.0 with NAT and HPH. After 48 h of growth, optical density (OD) was read using a TECAN Infinite F200 Pro, and dilutions to 1 OD in sterile nanopure water were prepared. Cells were then diluted to 0.1 OD by combining 25 µl of cell suspension at OD = 1 and 225 µl of PCA selection media without agar in a 96-wells plate. Plates were incubated at 30 °C in a TECAN Infinite M Nano and OD was monitored each 15 min for 72 h.

B1: YNL094W_1 (protein, UniProt P53933 1-587, looked up)
Phosphatidate phosphatase APP1: MNSQGYDESSSSTAATSGPTSGDPRMGKKQRFMNLIRTTKDVYIPNLTSSISQKTMDGIRSTTNSFEGYNDLPMELPHNTTITYFPTYTTTNLVDPDGLSAPRKDFETTVRCAVSYPGNPTSRRNRWLLSLCKQYLRTGTAEADVAPVVPPHLEEDSGDLNDSQSSIESSLSSKSENRYSHMGIQEEDVLNERIQGFLSKKVPNTPVVVDLLPKDKLRGDTASFFGTTDSYGNLLIKAETDFLPSKINITLDTPIEGHADPISETFPANYVSPYGIGLISDIDDTIKHTGVTGDRRSMFRNVFIHDVQSWVIDGVPLWYKTLHDVADVDFFYVSNSPIQTFTLLKQYICANFPPGPIFLKQYSGNFFSTIMTSSANRKIQPIANILKDFPKKKFILVGDSGEHDLEAYTTTALQFPNQILAIYIRCCSNSMSDVPSHDEEVMNEVNNIIELQQRPMQMTKSTVRTRRRPPPPPIPSTQKPSLTEEQTESIRMSRRNKDENNAKRVAPPPLPNRQLPNLDANTYYVPSSQNDYGMYGAFMDKKADEWKRRVMDSIQKLSNQDTTLMFFSDPALSLEDSIRRIREKYSN
- Ratio (Deletedscore / WTscore) (bait ABP1): 0.4956

B2: YPR055W_1 (protein, UniProt P32855 1-1065, looked up)
Exocyst complex component SEC8: MDYLKPAQKGRRRGLSINSLSETQQSAMNSSLDHLQNDLNRINLQWNRILSDNTNPLELALAFLDDTSVGLGHRYEEFNQLKSQIGSHLQDVVNEHSQVFNTNVASYGKAVSSIMQAQEQTLNLKNCLKEANEKITTDKGSLQELNDNNLKYTKMIDVLVNIEELLQIPEKIEENIRKENFHQVQILLERGFILMNNKSLKTVEILKPINQQLELQEHLLFNNLIEEIHDIMYSKSNKTNFTRVTNNDIFKIISISHNGFTSLENYLYNIVNIDIMEHSKTINKNLEQFIHDQSLNKGNIMLQENAATQAPLAPSRNQENEGFNRIGFLLKTINNINKLPVAFNIITERAKEEIHNIIVKSTESIRSKHPSLLKMATSLKNDNHFGLPVQDILSIILRECFWEIFLKLLYAIQCHRAIFEMSNILQPTSSAKPAFKFNKIWGKLLDEIELLLVRYINDPELISSNNGSIKPINGATNNAPTLPKRKNPKIFSLEYNIEDNSSVKDQAFELKALLKDIFPGFSVSSNMDLDSIYVKDESFEQDEPLVPPSVFNMKVILDPFLLFTQSTSTIVPSVLTQNTISSLTFFDDYMNKSFLPKIQMTMDYLFTVEVESNNPYALELSDENHNIFKTALDFQRLFYNLLNVFNTANTFREKISYCILDLLNHFYNYYLGLFNSLIGTSDRHLTRKIITAWLQNGILMDQEQKILNGDETLFHEESIELFKEIPHFYQAGKGLSKSDLFNNLTLDTILQFSASVLWILNWLPGLKKAINIDEVSQEPMLDADRLRSSWTFSESMDLNYSNPSSSPNSLGNLKILLDDKASKKFDETIDGFKTLKFKLITILRFNIRALCIYDIGSFFQNTKIWNMDVGSIELDQNIASLISELRRTESKLKQQLPEKEKNSIFIGLDIVNNYALIKGAKSIKVLNHNGIKKMLRNVNVLQHAYRNLSSEPSKINMNVTMNFYSLCGSSEAELFEYIKDNELPHCSVEDLKTILRLQFSEEMHRQLKRQSTSSTKGSIKPSNKRYTEALEKLSNLEKEQSKEGARTKIGKLKSKLNAVHTANEK
- Ratio (Deletedscore / WTscore) (bait ABP1): 0.936
- Ratio (Deletedscore / WTscore) (bait BEM1-1): 1.037
- Ratio (Deletedscore / WTscore) (bait BEM1-2): 0.6358
- Ratio (Deletedscore / WTscore) (bait LSB3): 0.783

B3: YKL117W_2 (protein, UniProt P28707 2-216, looked up)
Co-chaperone protein SBA1: SDKVINPQVAWAQRSSTTDPERNYVLITVSIADCDAPELTIKPSYIELKAQSKPHVGDENVHHYQLHIDLYKEIIPEKTMHKVANGQHYFLKLYKKDLESEYWPRLTKEKVKYPYIKTDFDKWVDEDEQDEVEAEGNDAAQGMDFSQMMGGAGGAGGAGGMDFSQMMGGAGGAGSPDMAQLQQLLAQSGGNLDMGDFKENDEEDEEEEIEPEVKA
- Ratio (Deletedscore / WTscore) (bait ABP1): 1.066
- Ratio (Deletedscore / WTscore) (bait BZZ1-2): 1.596
- Ratio (Deletedscore / WTscore) (bait LSB3): 1.715
- Ratio (Deletedscore / WTscore) (bait RVS167): 1.422

B4: YGR229C_2 (protein, UniProt P32566 1-505, looked up)
Cell wall assembly regulator …: MDLFKRKVKEWVYSLSTDDHYAEYNPDETPTFNMGKRLNSNNGQVNPSQMHLNSVDEEMSMGFQNGVPSNEDINIDEFTSTESNDGVSETLLAWRHIDFWTSEHNPDLNATLSDPCTQNDITHAEEDLEVSFPNPVKASFKIHDGQEDLESMTGTSGLFYGFQLMTLDQVVAMTQAWRNVAKNLNKRSQQGLSHVTSTGSSSSMERLNGNKFKLPNIPDQKSIPPNAVQPVYAHPAWIPLITDNAGNHIGVDLAPGPNGKYAQIITFGRDFDTKFVIAENWGEFLLSFANDLEAGNWYLVDDNDDYFSGDGELVFRDKKSNGPIQDYFEVLKRRTWIKYQENLRSQQQKSQPDTSLQEQKYVPASQKKVAAEQPSTLNAESIKGEDSGSADVQSVQDHESVKIVKTEPSEAETTTVNTESLGQAEHEIKADNVDIKQESERKEDEKQPKVEEKEHVENEHVTESAKKDDDVNKQTEEMNKKEENEIRSDDAKVEEAREEFENIAL
- Ratio (Deletedscore / WTscore) (bait BZZ1-1): 1.034
- Ratio (Deletedscore / WTscore) (bait BZZ1-2): 1.734
- Ratio (Deletedscore / WTscore) (bait LSB1): 1.08
- Ratio (Deletedscore / WTscore) (bait PIN3): 1.619

B5: YLR191W_2 (protein, UniProt P80667 1-386, looked up)
Peroxisomal membrane protein …: MSSTAVPRPKPWETSASLEEPQRNAQSLSAMMTSNQQDSRPTEESNNSNSASESAPEVLPRPAALNSSGTYGESNTIPGIYGNSNYGIPYDNNPYSMNSIYGNSIGRYGYGGSYYGNNYGSFYGGGYGAGAGYGMNNGSGLGESTKATFQLIESLIGAVTGFAQMLESTYMATHNSFFTMISVAEQFGNLKEMLGSFFGIFAIMKFLKKILYRATKGRLGIPPKNFAESEGSKNKLIEDFQKFNDSGTINSNEKATRRKISWKPLLFFLMAVFGFPYLLNKFITKLQTSGTIRASQGNGSEPIDPSKLEFARALYDFVPENPEMEVALKKGDLMAILSKKDPLGRDSDWWKVRTKNGNIGYIPYNYIEIIKRRKKIEHVDDETRTH
- Ratio (Deletedscore / WTscore) (bait BEM1-1): 1.873
- Ratio (Deletedscore / WTscore) (bait): 1.174

B6: YOR284W_1 (protein, UniProt Q12134 1-243, looked up)
Protein HUA2: MQQTKFGKMYLDHDSVVEYSEDEIVEADRITLGYKKRLSMIENQMRHLLEDFSLDVQQIEPILADLQKYYDAFLQLLQKRNKSLQCKRSTHQPVPSPMNSQTSTNAKVNLSGKLMKFQLNSVQKFDEENILRILQNKIEFEHYFQIDKGKKQKVLLLAVYQCLNGPTRLHKVLNIEGIIHNNSIRTILGKQVSSSKWTVFLYDVKLVLLAHRQDVPNLETSKMIVRYGDLFPCALYFKDHTAY
- Ratio (Deletedscore / WTscore) (bait ABP1): 0.3885

B7: YGL099W_1 (protein, UniProt P53145 1-640, looked up)
Large subunit GTPase 1: MPPKEAPKKWKAPKGPKPTHRKNKNKLELGRAIKYARQKENAIEYLPDGEMRFTTDKHEANWVKLRSVTQESALDEFLSTAALADKDFTADRHSNVKIIRMDSGNDSATSQGFSMTNEQRGNLNAKQRALAKDLIVPRRPEWNEGMSKFQLDRQEKEAFLEWRRKLAHLQESNEDLLLTPFERNIEVWKQLWRVVERSDLVVQIVDARNPLLFRSVDLERYVKESDDRKANLLLVNKADLLTKKQRIAWAKYFISKNISFTFYSALRANQLLEKQKEMGEDYREQDFEEADKEGFDADEKVMEKVKILSIDQLEELFLSKAPNEPLLPPLPGQPPLINIGLVGYPNVGKSSTINSLVGAKKVSVSSTPGKTKHFQTIKLSDSVMLCDCPGLVFPNFAYNKGELVCNGVLPIDQLRDYIGPAGLVAERIPKYYIEAIYGIHIQTKSRDEGGNGDIPTAQELLVAYARARGYMTQGYGSADEPRASRYILKDYVNGKLLYVNPPPHLEDDTPYTREECEEFNKDLYVFDRLPDTRKEQVQNAAKAKGIDIVDLARDLNQLTFSAHTGGDTQKEAKSVTHGGKQAALYNAAEDLDRDFFKMNNVEGRLSTPFHKVQNSSAGKRHNKKNKSKNAKSKVFSIENN
- Ratio (Deletedscore / WTscore) (bait ABP1): 1.003

B8: YCL024W_2 (protein, UniProt P25389 1-1037, looked up)
Probable …: MTVANTETHSAAKPSSTIGPWKLGETLGFGSTGKVQLAQHERTGHRTAVKVISKSIFNNNGNHSNDDSVLPYNIEREIVIMKLLSHPNVLSLYDVWETNNNLYLILEYAEKGELFNLLVDHGPLPEREAINCFRQIIIGISYCHALGIVHRDLKPENLLLDSFYNIKIADFGMAALQTDADLLETSCGSPHYAAPEIVSGLPYEGFASDVWSCGVILFALLTGRLPFDEENGNVRDLLLKVQKGQFEMPNDTEISRDAQDLIGKILVVDPRQRIKIRDILSHPLLKKYQTIKDSKSIKDLPRENTYLYPLADSNNHTSASIDDSILQNLVVLWHGRHADDIVSKLKENGTNKEKILYALLYRFKLDSVRGSNKKNRNKIKKTKKNKRSSTLSSSSSLLLNNRSIQSTPRRRTSKRHSREFSSSRKRSSFLLSSNPTDSSPIPLRSSKRITHINVASANTQATPSGVPNPHKRNSKKRSSKRLSYMPNTKRSSLTSKSLSNFTNLIDDDDWEYIEKDAKRTSSNFATLIDEIFEPEKFELAKREKAELQRKVQEAKRQSVNAQKINEDEFGSEVSDGMKELKKINDKVSSPLINYEFSQQELLQDIDTLLTNRYQLSSYTRPISRLDPGLTPVTETLPNNLKEKTALLQDTEKKIIETIRRSKFLGSLLNVRGGLSPGKSELAPIEESPIVSTTPLIYNDRMEPRRISDVEVPHFTRKSKHFTTANNRRSVLSLYAKDSIKDLNEFLIKEDPDLPPQGSTDNESRSEDPEIAESITDSRNIQYDEDDSKDGDNVNNDNILSDFPQGVGISQEYDMKDKNPNQSPISKSAEPTLVVKLPSLSSFQGKNASGLGLYQREPSKVTLPSLTSNNSSVGENIEDGAEKGTESEKIAASLSDDDLKEDNDKKDNDTVNAPTTVKKPPNSVLLKKFSKGKILELEIHAKIPEKRLYEGLHKLLEGWKQYGLKNLVFNITNMIITGKLVNDSILFLRSTLFEIMVLPNGDGRSLIKFNKKTGSTKTLTKLATEIQIILQKEGVLDK
- Ratio (Deletedscore / WTscore) (bait NBP2): 1.51
